Source: PMC11024442, “Lipocalin-type prostaglandin D synthase: a glymphopathy marker in idiopathic hydrocephalus” (Frontiers in Aging Neuroscience, 2024)

Biological target: T1, human recombinant Tau-441 (human, UniProt P10636-8 1-441)
T1 construct: Commercial recombinant protein; source: bought: WAKO
Assay: SPR; Biacore 2000; recombinant human Δ1–22 L-PGDS amine-coupled to a CM5 chip; Tau-441 flowed at 3, 2 and 1 nM; dissociation on washing with Dulbecco's phosphate-buffered saline; Kd from the sensorgrams with BIAevaluation 3.1
Details: both partners purified

T1 sequence (P10636 other isoform, or with tags, fused parts or gaps): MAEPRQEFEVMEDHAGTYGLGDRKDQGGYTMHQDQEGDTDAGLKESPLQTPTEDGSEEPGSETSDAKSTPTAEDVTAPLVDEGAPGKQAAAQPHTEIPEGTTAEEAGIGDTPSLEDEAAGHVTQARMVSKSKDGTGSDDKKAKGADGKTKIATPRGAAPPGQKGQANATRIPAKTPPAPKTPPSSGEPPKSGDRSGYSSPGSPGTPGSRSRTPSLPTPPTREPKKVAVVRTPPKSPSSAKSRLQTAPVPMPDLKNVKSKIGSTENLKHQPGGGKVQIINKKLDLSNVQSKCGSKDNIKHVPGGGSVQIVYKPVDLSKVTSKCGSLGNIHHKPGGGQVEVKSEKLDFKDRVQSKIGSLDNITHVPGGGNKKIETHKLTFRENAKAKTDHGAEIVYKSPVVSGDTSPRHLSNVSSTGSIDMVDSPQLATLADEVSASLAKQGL

- Kd: 910 µM
B1: human recombinant Δ1–22 L-PGDS (lipocalin-type prostaglandin D synthase without the signal sequence) (enzyme, UniProt P41222 23-190, looked up)
chain: APEAQVSVQPNFQQDKFLGRWFSAGLASNSSWLREKKAALSMCKSVVAPATDGGLNLTSTFLRKNQCETRTMLLQPAGSLGSYSYRSPHWGSTYSVSVVETDYDQYALLYSQGSKGPGEDFRMATLYSRTQTPRAELKEKFTAFCKAQGFTEDTIVFLPQTDKCMTEQ
notes: Cloned into pGEX-2T as a GST fusion and cut with thrombin; also called recombinant human ∆1–22 L-PGDS; recombinant human L-PGDS; source: E. coli BL21 (DE3), purified (glutathione-Sepharose 4B, thrombin digestion, gel filtration on HiLoad Superdex 75)
